# Like-named read-outs stand apart in the source and are kept apart here.
# T1: cHER3ECD (Maccaca fascicularis HER3 extracellular domain) (Macaca fascicularis, UniProt P21860 20-643 (human entry))
# T1 construct: also called cyno HER3ECD; cyno HER3-ECD
# T1 chain: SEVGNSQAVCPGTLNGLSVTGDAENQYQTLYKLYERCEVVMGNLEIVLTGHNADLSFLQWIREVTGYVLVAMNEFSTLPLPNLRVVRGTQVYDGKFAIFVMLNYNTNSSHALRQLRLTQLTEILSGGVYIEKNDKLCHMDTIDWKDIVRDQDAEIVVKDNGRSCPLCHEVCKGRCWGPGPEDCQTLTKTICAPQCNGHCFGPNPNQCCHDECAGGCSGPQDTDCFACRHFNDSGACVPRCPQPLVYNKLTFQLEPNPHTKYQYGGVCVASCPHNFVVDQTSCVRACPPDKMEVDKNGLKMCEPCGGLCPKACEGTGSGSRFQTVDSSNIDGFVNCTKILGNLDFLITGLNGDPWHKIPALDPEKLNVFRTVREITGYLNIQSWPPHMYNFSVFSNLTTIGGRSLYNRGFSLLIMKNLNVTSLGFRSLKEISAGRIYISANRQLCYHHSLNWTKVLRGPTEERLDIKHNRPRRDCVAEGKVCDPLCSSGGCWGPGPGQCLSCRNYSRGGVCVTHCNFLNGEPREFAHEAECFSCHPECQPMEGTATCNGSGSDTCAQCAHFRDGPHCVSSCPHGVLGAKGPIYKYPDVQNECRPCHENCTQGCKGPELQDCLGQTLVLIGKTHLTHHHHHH
# B1: 05A09 (VHH)
# VHH: EVQLVESGGGLVQAGGSLRLSCAASGFTFDDYAIGWFRQAPGKEREGVSCISSSDGSTVYADSVKGRFTISSDNAKNTVYLQMNSLKPEDTAVYYCAAERRRGYSDLCRFYYGMDYWGKGTQVTVSS
# B2: HER3MS00129 (VHH)
# VHH: EVQLVESGGGLVQPGGSLRLSCAASGFTFSSYPMSWVRQAPGKGPEWVSTVSPGGITTSYADSVKGRFTISRDNSKNTLYLQMNSLRPEDTAVYYCLRDLGNRGQGTLVTVSS
# notes: 04C07 basic + A46E + N101G
# B3: 34A04 (VHH)
# VHH: EVQLVESGGGLVQAGGSLRLSCAASGFTFDDYTIGWFRQAPGKEREEISCISNNDGSTYYTNSVKGRFTISSDNAKNTVYLQMNSLKPEDTAVYYCAASPHGCWYDLIPLQADFGSWGQGTQVTVSS
# B4: HER3MS00068 (VHH)
# VHH: EVQLVESGGGLVQPGGSLRLSCAASGTLFKINAMGWYRQAPGKRRELVALITSSDTTDYAESVEGRFTISRDNTWNAVYLQMNSLKPEDTAVYYCHSDHYSGGVPEKRVIMYGQGTLVTVSS
# notes: 18G11 M99G
# B5: HER3MS00070 (VHH)
# VHH: EVQLVESGGGLVQPGGSLRLSCAASGTLFKINAMGWYRQAPGKRRELVALITSSDTTDYAESVEGRFTISRDNTWNAVYLQMNSLKPEDTAVYYCHSDHYSIGVPEKRVIMYGQGTLVTVSS
# notes: 18G11 M99I
# B6: HER3MS00074 (VHH)
# VHH: EVQLVESGGGLVQPGGSLRLSCAASGTLFKINAMGWYRQAPGKRRELVALITSSDTTDYAESVEGRFTISRDNTWNAVYLQMNSLKPEDTAVYYCHSDHYSMGVPEKRVIEYGQGTLVTVSS
# notes: 18G11 M102E
# B7: HER3MS00072 (VHH)
# VHH: EVQLVESGGGLVQPGGSLRLSCAASGTLFKINAMGWYRQAPGKRRELVALITSSDTTDYAESVEGRFTISRDNTWNAVYLQMNSLKPEDTAVYYCHSDHYSMGVPEKRVILYGQGTLVTVSS
# notes: 18G11 M102L
# B8: HER3MS00071 (VHH)
# VHH: EVQLVESGGGLVQPGGSLRLSCAASGTLFKINAMGWYRQAPGKRRELVALITSSDTTDYAESVEGRFTISRDNTWNAVYLQMNSLKPEDTAVYYCHSDHYSVGVPEKRVIMYGQGTLVTVSS
# notes: 18G11 M99V
# B9: HER3MS00073 (VHH)
# VHH: EVQLVESGGGLVQPGGSLRLSCAASGTLFKINAMGWYRQAPGKRRELVALITSSDTTDYAESVEGRFTISRDNTWNAVYLQMNSLKPEDTAVYYCHSDHYSMGVPEKRVIDYGQGTLVTVSS
# notes: 18G11 M102D
# B10: HER3MS00069 (VHH)
# VHH: EVQLVESGGGLVQPGGSLRLSCAASGTLFKINAMGWYRQAPGKRRELVALITSSDTTDYAESVEGRFTISRDNTWNAVYLQMNSLKPEDTAVYYCHSDHYSLGVPEKRVIMYGQGTLVTVSS
# notes: 18G11 M99L
# B11: HER3MS00077 (VHH)
# VHH: EVQLVESGGGLVQPGGSLRLSCAASGSIGGLNAMAWYRQAPGKERELVAGIFGVGSTRYADSVKGRFTISRDNSKNTVFLQMNSLRSEDTAVYYCRMSSVTRGSSDYWGQGTLVTVSS
# notes: 17B05 basic + I73N; also called HER3MS0077
# B12: HER3MS00081 (VHH)
# VHH: EVQLVESGGGLVQPGGSLRLSCAASGSIGGLNAMAWYRQAPGKERELVAGIFGVGSTRYADSVKGRFTISRDNSKNTVFLQMNSLRSEDTAVYYCAMSSVTRGSSDYWGQGTLVTVSS
# notes: also called HER3MS0081
# B13: HER3MS00082 (VHH)
# VHH: EVQLVESGGGLVQPGGSLRLSCAASGSIGGLNAMAWYRQAPGKERELVAGIFGVGSTRYADSVKGRFTISRDISKNTVYLQMNSLRSEDTAVYYCAMSSVTRGSSDYWGQGTLVTVSS
# notes: also called HER3MS0082
# B14: HER3MS00078 (VHH)
# VHH: EVQLVESGGGLVQPGGSLRLSCAASGSIGGLNAMAWYRQAPGKERELVAGIFGVGSTRYADSVKGRFTISRDISKNTVYLQMNSLRSEDTAVYYCRMSSVTRGSSDYWGQGTLVTVSS
# notes: 17B05 basic + F79Y; also called HER3MS0078
# B15: HER3MS00079 (VHH)
# VHH: EVQLVESGGGLVQPGGSLRLSCAASGSIGGLNAMAWYRQAPGKERELVAGIFGVGSTRYADSVKGRFTISRDISKNTVFLQMNSLRSEDTAVYYCAMSSVTRGSSDYWGQGTLVTVSS
# notes: also called HER3MS0079
# Tests used:
# [1] = biological target: T2, human HER3-Fc (R&D Systems, 348-RB) (human, UniProt P21860 20-643); experiment: SPR, HER3-Fc captured by anti-Fc
# T2 construct: Bought; also called hHER3-Fc; Fc-HER3; Fc part of the bought chimera not given, not described
# hHER3 full length [2] = biological target: T3, hHER3 full length (human, UniProt P21860 20-1342); experiment: FACS competition with HRG1-β1-EGF, CHO-HER3
# hHER3 full length [3] = biological target: T3, hHER3 full length; experiment: FACS, 400 nM, competitor 04F10-biotin
# [4] = biological target: T1, cHER3ECD (Maccaca fascicularis HER3 …); experiment: ELISA, coated cHER3-ECD
# hHER3 full length [5] = biological target: T3, hHER3 full length; experiment: cell-based or functional assay
# hHER3 full length [6] = biological target: T3, hHER3 full length; experiment: FACS, 400 nM, competitor 23F05-biotin
# [7] = biological target: T4, hHER3 ECD (human HER3 extracellular domain) (human, UniProt P21860 20-643); experiment: ELISA, coated hHER3-ECD
# T4 construct: also called recombinant HER3-ECD
# hHER3 full length [8] = biological target: T3, hHER3 full length; experiment: FACS, 400 nM, competitor 17C08-biotin
# hHER3 full length [9] = biological target: T3, hHER3 full length; experiment: FACS, 400 nM, competitor 18E08-biotin
# hHER3 full length [10] = biological target: T3, hHER3 full length; experiment: cell-based or functional assay; remark: listed apart in the source
# hHER3 full length [11] = biological target: T3, hHER3 full length; experiment: FACS, 400 nM, competitor 04C07-biotin
# hHER3 full length [12] = biological target: T3, hHER3 full length; experiment: FACS, 400 nM, competitor 21B02-biotin
# [13] = biological target: T2, human HER3-Fc (R&D Systems, 348-RB); experiment: HRG competition alphascreen
# hHER3 full length [14] = biological target: T3, hHER3 full length; experiment: cell-based or functional assay; remark: listed apart in the source
# hHER3 full length [15] = biological target: T3, hHER3 full length; experiment: cell-based or functional assay; remark: listed apart in the source
# [16] = biological target: T2, human HER3-Fc (R&D Systems, 348-RB); experiment: 18G11 competition alphascreen, periplasmic extract
# [17] = biological target: T4, hHER3 ECD (human HER3 extracellular …); experiment: SPR off rate on HER3-ECD, periplasmic extract
# [18] = biological target: T2, human HER3-Fc (R&D Systems, 348-RB); experiment: HRG competition alphascreen; remark: listed apart in the source
molecule,measurement,setting,value
Control Fab1,Kd,[1],0.57 nM
same,kon,[1],703000 M⁻¹ s⁻¹
Control Fab2,Kd,[1],2.77 nM
same,kon,[1],93400 M⁻¹ s⁻¹
Control MAb2 (antibody),IC50,hHER3 full length [2],67.2 nM
Control MAb1 (antibody),IC50,hHER3 full length [2],9.4 nM
B1,% competition,hHER3 full length [3],0%
same,EC50,[4],1.3 nM
same,"IC50, HRG1-β1 induced pAkt, MCF-7",hHER3 full length [5],2.9e-07 M
same,"inhibition of HRG1-β1 induced pERK1/2, MCF-7",hHER3 full length [5],< 50 % inhibition
same,% competition,hHER3 full length [6],10%
same,EC50,[7],1.45 nM
same,% competition,hHER3 full length [8],48%
same,% competition,hHER3 full length [9],78%
same,"IC50, HRG1-β1 induced pHER3, MCF-7",hHER3 full length [10],9.12e-08 M
same,"IC50, HRG1-β1 induced pHER3, MDA-MB468",hHER3 full length [10],1.28e-07 M
same,% competition,hHER3 full length [11],0%
same,% competition,hHER3 full length [12],22%
B2,IC50,[13],5.1 nM
same,"IC50 pHER3, HRG1-β1 stimulated MCF7",hHER3 full length [14],1.21e-07 M
B3,Kd,[1],2.7 nM
same,kon,[1],2.63e+06 M⁻¹ s⁻¹
same,% competition,hHER3 full length [3],3%
same,EC50,[4],0.49 nM
same,"IC50, HRG1-β1 induced pAkt, MCF-7",hHER3 full length [5],6.26e-08 M
same,"IC50, HRG1-β1 induced pERK1/2, MCF-7",hHER3 full length [5],3.13e-07 M
same,% competition,hHER3 full length [6],97%
same,EC50,[7],0.57 nM
same,% competition,hHER3 full length [8],14%
same,% competition,hHER3 full length [9],25%
same,"IC50, HRG1-β1 induced pHER3, MCF-7",hHER3 full length [10],3.02e-08 M
same,"IC50, HRG1-β1 induced pHER3, MDA-MB468",hHER3 full length [10],2.2e-08 M
same,% competition,hHER3 full length [11],22%
same,% competition,hHER3 full length [12],99%
B4,"IC50 pHER3 blocking, HRG stimulated MCF7",hHER3 full length [15],8.88e-08 M
same,% inhibition,[16],84.4%
same,koff,[17],0.001 s⁻¹
B5,"IC50 pHER3 blocking, HRG stimulated MCF7",hHER3 full length [15],3.78e-08 M
same,% inhibition,[16],82.2%
same,koff,[17],0.00064 s⁻¹
B6,"IC50 pHER3 blocking, HRG stimulated MCF7",hHER3 full length [15],6.3e-08 M
same,% inhibition,[16],82.7%
same,koff,[17],0.00049 s⁻¹
B7,"IC50 pHER3 blocking, HRG stimulated MCF7",hHER3 full length [15],5.76e-08 M
same,% inhibition,[16],88%
same,koff,[17],0.00082 s⁻¹
B8,"IC50 pHER3 blocking, HRG stimulated MCF7",hHER3 full length [15],7.35e-08 M
same,% inhibition,[16],80.9%
same,koff,[17],0.00084 s⁻¹
B9,"IC50 pHER3 blocking, HRG stimulated MCF7",hHER3 full length [15],8.75e-08 M
same,% inhibition,[16],84.4%
same,koff,[17],0.00083 s⁻¹
B10,"IC50 pHER3 blocking, HRG stimulated MCF7",hHER3 full length [15],5.27e-08 M
same,% inhibition,[16],83%
same,koff,[17],0.00081 s⁻¹
B11,IC50,[18],0.753 nM
B12,IC50,[18],5.89 nM
B13,IC50,[18],4.05 nM
B14,IC50,[18],0.811 nM
B15,IC50,[18],3.08 nM

# Reference: patent US20130136748A1 (Ablynx, published 2013)
